In the supplement of paper PMC10567573:

B1: BRF1 (parent)
chain: CTACGSVLEDNIIVSEVQFVESSG
B2: GNB5 (parent)
chain: YYPSGDAFASGSDDATCRLYDLRA

Variants of: B1
Test: protein stability index of a GFP-peptide fusion (GPS, HEK-293T) (PSI 1-6); higher = more stable
Details: c terminus: a fixed tail appended
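Also: lentivirally expressed fusions sorted by FACS into six bins by GFP to DsRed ratio, PSI derived from sequencing read proportions per bin multiplied by bin number.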

Protein stability index, by site and new letter:
L8: I 3.44; G 3.39; T 4.19; R 3.03; A 2.9; H 3.32; S 3.06
C4: Y 2.61; P 2.68; Q 4.18; S 3.5; R 3.57; D 4.7; K 4.04; G 3.74; I 3.35
S15: C 2.82; I 1.36; T 3.02; W 2.75; Y 2.06; L 1.69
A3: S 2.91; R 2.9; N 4.03; W 3.08; H 2.56; I 2.06
V7: T 3.86; E 4.17
S23: V 2.63; C 2.9; Q 3.55; N 3.15; I 2.88; H 3.24; P 2.72; W 2.53
E16: M 3.11; A 2.66; T 2.2; I 3.35; L 3.15; F 2.08; Q 2.9
E21: I 2.28; D 3.19; C 3.27; L 2.7; W 2.05; H 2.88
F19: I 2.87; T 3.98; P 4.2; Q 3.76; Y 3.49; K 4.19
S22: N 3.07; C 1.88; H 3.06; W 2.66; K 3.81; V 2.75
Q18: E 3.22; M 2.36; F 1.79; H 1.91; N 2.77; C 2.52; I 1.82
V17: N 3.56; Q 4.07; S 4.35; W 2.1; C 3.48
N11: V 1.96; D 2.84; C 1.74; A 1.54; L 2.98
S6: P 2.79; M 1.82; Q 2.44; F 1.24; R 2.51; V 2.22; H 4.15
T2: H 3; M 2.78; Y 2.21; A 3.64
I13: N 3.79; A 3.96
G5: C 1.78; R 2.4; D 3.62; S 3.17; N 3.24; K 3.33
I12: Q 4.35; L 3.06; E 4; A 3.77; N 4.8; V 2.99; D 3.08
E9: L 2.24; N 2.85; T 2.55
V20: A 3.65; S 4.23; Q 3.35; D 4.52; M 2.55; R 3.18; T 3.58
C1: W 2.51; D 4.46; Y 3.18; G 4.18; T 4.16; Q 4.3; P 3.29; N 3.65
D10: P 3.44; L 3.29; R 3.89; N 2.55
V14: T 3.95; P 3.96; G 3.54
G24: A 3.67; P 3.28; N 3.01; V 2.45; H 2.25; D 3.38; L 3.01; R 2.64

Variants of: B2
Test: as above
Details: c terminus: a fixed tail appended

Protein stability index, by site and new letter:
A15: K 2.35; T 2.26; Y 2.21; N 2.61; F 2.1; R 2.24; V 2.72; P 2.63; S 2.25; W 2.56; H 2.05; G 2.87; L 2.15; M 2.36; D 3.4; E 2.75; C 1.98; Q 2.62; I 1.97
A24: P 2.34; C 2.3; T 2.86; Y 2.22; G 2.7; R 2.41; E 2.27; I 1.9; K 2.43; D 2.62; S 2.32; F 2.07; N 2.79; V 1.78; Q 3.01; H 2.24; W 2; M 2.85; L 2.14
C17: V 2.85; H 2.56; P 2.62; M 2.46; G 2.85; S 2.85; N 2.8; Y 2.23; I 2.89; K 2.69; R 2.62; T 2.61; A 2.42; E 3.36; D 3.3; L 2.87; F 2.07; W 2.48; Q 2.9
R23: Q 2.47; P 2.86; G 2.65; S 2.81; N 2.33; A 2.47; M 2.37; Y 2.01; H 2.87; C 2.27; W 2.15; T 2.18; L 2.03; I 2.37; K 2.58; E 3.14; F 2.27; V 2.03; D 3.01
L19: W 2.46; K 2.77; S 2.87; C 2.66; Y 2.57; E 3.39; G 2.9; M 2.5; H 2.44; I 2.3; F 2.33; P 2.61; A 2.87; R 2.55; T 3.07; Q 2.65; D 3.34; N 2.72; V 2.56
T16: E 2.79; A 2.96; V 1.95; M 2.31; F 2.32; R 2.94; S 2.42; C 2.27; N 2.69; I 2.18; K 3.11; W 1.91; G 2.46; Q 2.88; Y 2.52; P 2.54; L 2.32; H 2.37; D 2.91
Y20: E 3.15; A 2.73; D 3.13; C 2.26; V 2.9; R 3.13; W 2.33; K 2.88; M 2.77; F 2.4; L 2.6; N 2.95; H 2.42; G 2.63; T 2.65; Q 2.88; I 2.84; S 2.87; P 3.32
R18: A 3.06; E 3.25; K 3.04; W 2.15; T 2.77; N 2.54; P 3.13; D 3.35; Y 2.49; F 2.84; V 2.67; H 3.23; S 2.88; C 2.29; M 2.2; Q 2.85; L 2.45; G 2.85; I 2.42
L22: G 2.65; W 2.26; A 2.8; S 3.08; D 3.03; Q 2.55; T 2.73; V 2.62; F 2.64; M 2.49; I 2.78; N 2.84; H 3.09; K 3.07; R 2.75; C 3.17; E 3.34; P 2.85; Y 2.68
D21: V 1.8; M 2.23; I 2.41; F 1.5; C 1.58; H 2.31; R 1.99; A 2.18; E 2.47; S 1.89; L 2.02; Y 1.61; N 1.99; G 2.2; K 2.43; W 2.25; P 2.52; T 1.99; Q 2.3
D14: T 2.02; Y 1.58; S 1.94; W 1.22; V 2.27
